The values that follow come from patent US20160053277A1, “Compositions Having Dicamba Decarboxylase Activity and Methods of Use” (PIONEER HI-BRED INTERNATIONAL, INC., priority 2013, published 2016).

Data set [1] can be described thus: Shuffled variant libraries: 14CO2 capturing assay in 384-well format. The note with it: decarboxylation activity (carbon dioxide released) compared with unmutated backbone protein SEQ ID NO 133 (DDEC0201).
Data set [2] can be described thus: Saturation mutagenesis of SEQ ID NO:109: dicamba decarboxylation activity of point mutants (carbon dioxide released). The following applies: decarboxylation activity (carbon dioxide released) of point mutant compared with unmutated backbone protein; backbone SEQ ID NO: 109.
Data set [3] in a line: Dicamba decarboxylation activity of computationally designed protein variants and their parents. The note with it: for dicamba decarboxylase activity (native protein or designed variant): statement in the description.
A short description of data set [4]: 14C assay with IPTG-induced recombinant E. coli cells: 14CO2 captured from [14C]-carboxyl-labeled dicamba. The following applies: for Enzymatic Detection level: dicamba decarboxylation activity of the protein of the given SEQ ID NO, High / Low / No.

B1: 260 (protein)
chain: MAQGKVALEEHFAIPETLQDSAGFVPGDYWKELQHRLLDIQDTRLKLMDAHGIETMILSLAAPAVQAIPDRRKAIEIARRANDFLAEECAKRPDRFLAFAALPMQDPDAASEELQRCVNDLGFVGALVNGFSVEGDGQTPLYYDLPQYRPFWGEVEKLDVPFYLHPRNPLPQDSRIYDGHPWLLGPTWAFAQETAVHALRLMASGLFDEHPRLNIILGHLGEGLPYMMYRIDHRIAWVKLPPRYPAKRRFMDYFNENFHITTSGNFRTQTLIDAILEIGADRILFSTDWPFENIDHAADWFNATSIAEADRVKIGRTNAPSSVQTG
modifications: Dicamba decarboxylase variant
As to B1, the entries for the “Fold Activity” value in data set [1] and in data set [2] were 1.5 and 1.7, respectively.

B2: 116 (protein)
chain: MAQGKVALEEHFAIPETLQDAAGFVPGDYWKELQHRLLDIQDRRVRLMDEHGIETMILSLNAPAVQAIADSTRANETARRANDFLAEQVAKQPTRFRGFAALPMQDPELAARELERCVKELGFVGALVNGFSQDNRSAVPLYYDMAQYWPFWETVQALDVPFYLHPRNPLPSDARIYDGHAWLLGPTWAFGQETAVHALRLMGSGLFDKYPALKIILGHMGEGLPYSMWRIDHRNAWIKTTPKYPAKRKIVDYFNENFYLTTSGNFRTQTLIDAILEIGADRILFSTDWPFENIDHAADWFENTSISEADRKKIGWGNAQNLFKLNR
modifications: Dicamba decarboxylase variant clone: DC.30.007
For the molecule B2, in data set [3] (parent = 100), the “Percent Activity Improvement Over Parent” value was found to be 220%. The “dicamba decarboxylase activity (native protein or designed variant)” value in data set [3] is reported as “displays an increase in dicamba decarboxylase activity”. In data set [2], the “Fold Activity” value was determined as 1.5. In addition, the “Enzymatic Detection level” value in data set [4] is reported as “High”.

B3: 100 (protein, listed as Reinekea blandensis)
chain: MAIIDCHGHYTTTPKGVEDYRNAQKAAVAKDPSFKGEKGQVVVSDDEIRESIENNQLKMQRERGTDLTIFSPRASWMGHHIGNEYTSQFWTEHQNDLIRRVCDLFPKNFAPVAQLPQSPGVDPAKSVPEIVRTVEQMGFIGINLNPDPSGGYWKDTSLADRAFYPIYEKMVEYDIPAMIHVSAACNDCFHTTGSHYLGADTTGFQQLIMSDVFKDFPSLKIIIPHGGGAVPYHWGRFRGLMQDQGYAPLEESALKNIYFDTCVYHQRGIDLLLDIVPTQNILFASEMIGAVRGIDPETGHNFDDTKRYIDNNTALNAEEKAMIFEGNARRVFSRLKTD
In the case of B3, the “dicamba decarboxylase activity (native protein or designed variant)” value in data set [3] is “Neither of the native proteins have dicamba decarboxylase activity”. Moreover, the “Fold Activity” value in data set [2] is listed as 2.5. In addition, the “Enzymatic Detection level” value in data set [4] is on record as “No”. Further, the “Dicamba Decarboxylase Activity” value in data set [4] (induced recombinant E. coli cells, [14C]-carboxyl-labeled dicamba, 14CO2 capture) is given as “No”.

B4: 256 (protein)
chain: MAQGKVALEEHFAIPETLQDSAGFVPGDYWKELQHRLLDIQDTRLNLMDAHGIETMILSLAAPAVQAIPDRRKAIEIARRANDFLAEECAKRPDRFLAFAALPLQDPDAATEELQRCVNDLGFVGALVNGFSQEGDGQTPLYYDLPQYRPFWGEVEKLDVPFYLHPRNPLPQDSRIYDGHPWLLGPTWAFAQETAVHALRLMASGLFDEHPRLNIILGHMGEGLPYMMYRIDHRIAWVHEPPRYPAKRRFMDYFNENFHITTSGNFRTQTLIDAILEIGADRILFSTDWPFENIDHAADWFNATSIAEADRVKIGRTNARRLFKLDVD
modifications: Dicamba decarboxylase variant
In the case of B4, the “Fold Activity” value in data set [1] amounted to 1.0; in data set [2], 1.7.

B5: 257 (protein)
chain: MAQGKVALEEHFAIPETLQDSAGFVPGDYWKELQHRLLDIQDTRLKLMDAHGIETMILSLAAPAVQAIPDRRKAIEIARRANDFLAEECAKRPDRFLAFAALPLQDVDAATEELQRCVNDLGFVGALVNGFSVEGDGQTPLYYDLPQYRPFWGEVEKLDVPFYLHPRNPLPQDSRIYDGHPWLLGPTWAFAQETAVHALRLMASGLFDEHPRLNIILGHMGEGLPYMMYRIDHRIAWVHEPPRYPAKRRFMDYFLENFHITTSGNFRTQTLIDAILEIGADRILFSTDWPFENIDHAADWFNATSIAEADRVKIGRTNARRLFKLDLD
modifications: Dicamba decarboxylase variant
Take B5: the “Fold Activity” value is listed as 1.6 in data set [1] and 2.4 in data set [2].

B6: 261 (protein)
chain: MAQGKVALEEHFAIPETLQDSAGFVPGDYWKELQHRLLDIQDTRLKLMDAHGIETMILSLAAPAVQAIPDRVEAIEIARRANDFLAEECAKRPDRFLAFAALPLQDPDAATEELQRCVNDLGFVGALVNGFSQEGDGQTPLYYDLPQYRPFWGEVEKLDVPFYLHPRNPLPQDSRIYDGHPWLLGPTWAFAQETAVHALRLMASGLFDEHPRLNIILGHMGEGLPYMMYRIDHRIAWVHEPPRYPAKRRFMDYFNENFHITTSGNFRTQTLIDAILEIGADRILFSTDWPFENIDHAADWFNATSIAEADRVKIGRTNARRLFKLDGA
modifications: Dicamba decarboxylase variant
With B6, the figures for the “Fold Activity” value in data set [1] and in data set [2] were 1.2 and 2.3, respectively.

B7: 258 (protein)
chain: MAQGKVALEEHFAIPETLQDSAGFVPGDYWKELQHRLLDIQDTRLRLMDAHGIETMILSLAAPAVQAIPDRRKAIEIARRANDFLAEECAKRPDRFLAFAALPLQDPDAATEELQRTVNDLGFVGALVNGFSQEGDGQTPLYYDLPQYRPFWGEVEKLDVPFYLHPRNPLPQDSRIYDGHPWLLGPTWAFAQETAVHALRLMASGLFDEHPRLNIILGHMGEGLPYMMYRIDHRIAWVHEPPRYPAKRRFMDYFNENFHITTSGNFRTQTLIDAILEIGADRILFSTDWPFENIDHAADWFNATSIAEADRVKIGRTNARRLFKLDGA
modifications: Dicamba decarboxylase variant
As to B7, the “Fold Activity” value in data set [1] stood at 1.2; in data set [2], 2.8.

B8: 259 (protein)
chain: MAQGKVALEEHFAIPETLQDSAGFVPSEYLKELQHRLLDIQDTRLKLMDAHGIETMILSLAAPAVQAIPDRRKAIEIARRANDFLAEECAKRPDRFLAFAALPMQDPDAATEELQRCVNDLGFVGALVNGFSVEGDGQTPLYYDLPQYRPFWGEVEKLDVPFYLHPRNPLPQDSRIYDGHPWLLGPTWAFAQETAVHALRLMASGLFDEHPRLNIILGHMGEGLPYMMYRIDHRIAWVHEPPRYPAKRRFMDYFNENFHITTSGNFRTQTLIDAILEIGADRILFSTDWPFENIDHATAWFNATSIAEADRVKIGRTNARRLFKLDGD
modifications: Dicamba decarboxylase variant
Turning to B8, the “Fold Activity” value in data set [1] is 1.8; in data set [2], 2.4.
